Experimental data: PMC3645317

Target: gHΔTM-Fc/gL (Kaposi's sarcoma-associated herpesvirus (KSHV))

Sequence of solEphA2-Fc (P29317 25-534): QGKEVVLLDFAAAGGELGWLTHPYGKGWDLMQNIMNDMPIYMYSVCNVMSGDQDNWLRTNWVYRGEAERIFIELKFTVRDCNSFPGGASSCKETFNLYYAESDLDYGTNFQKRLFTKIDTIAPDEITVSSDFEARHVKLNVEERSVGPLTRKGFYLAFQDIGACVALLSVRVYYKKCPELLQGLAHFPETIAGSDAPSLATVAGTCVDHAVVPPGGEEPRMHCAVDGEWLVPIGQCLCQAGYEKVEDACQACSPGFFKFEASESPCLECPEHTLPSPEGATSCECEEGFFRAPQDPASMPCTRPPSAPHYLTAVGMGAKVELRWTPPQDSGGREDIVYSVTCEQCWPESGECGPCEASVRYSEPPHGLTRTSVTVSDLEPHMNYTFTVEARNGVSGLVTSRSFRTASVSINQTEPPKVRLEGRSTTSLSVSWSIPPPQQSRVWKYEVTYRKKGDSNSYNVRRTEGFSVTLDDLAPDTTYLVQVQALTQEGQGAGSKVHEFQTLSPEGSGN

Substance: solEphA2-Fc (from UniProt P29317-1 25-534) (Fc fusion)
- inhibition of KSHV infection of 293T cells by solEphA2-Fc at 2 µg/ml: 80%
